Measured values taken from the supplement of paper PMC10567573.

B1: STK38L (parent)
chain: FCIDSENRIGNSGVEEIKGHPFFE
B2: INTS3 (parent)
chain: EEITEESLEESVGKPLYLIFRNLC

Variants of: B1
Assay: protein stability index of a GFP-peptide fusion (GPS, HEK-293T) (PSI 1-6); higher = more stable
Conditions: c terminus: a fixed tail appended
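Note: lentivirally expressed fusions sorted by FACS into six bins by GFP to DsRed ratio, PSI derived from sequencing read proportions per bin multiplied by bin number.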

Protein stability index of substitutions, site by site:
P21: M 1.94, Y 2.25, S 3.73, E 3.52, Q 2.99, F 1.7, I 2.46, A 2.72, G 2.54, D 4.22, H 2.89, W 1.9, C 2.07, V 2.28, K 2.84, L 1.42, R 2.97, N 3.13, T 2.91
H20: R 2.35, V 3.19, T 3.83, Y 2.47, Q 3.48
E24: C 2.7, H 1.54, A 1.92, V 1.71, S 2.15, W 1.61, N 2.19, D 2.24, T 1.21, K 1.72, P 2.01, Y 1.69, I 2.72, G 1.59, L 4, M 1.45, Q 1.75, F 1.74
F22: L 3.74, K 4.49, E 4.79, Q 3.1, T 4.5, A 3.58, H 4.33, I 3.65, P 4.32, N 4.5, V 4.11, Y 2.42, R 4.21, G 4.37, C 3.81, D 5.23
F23: S 1.93, H 2.69, P 4.07, T 1.46, I 2.47, C 1.8, L 2.52, D 4.86, V 1.85, M 1.07, W 2.02, R 1.72, A 1.78, Y 3.35, K 2.19, N 4.2

Variants of: B2
Assay: as above
Conditions: c terminus: a fixed tail appended

Protein stability index, by site and new letter:
E10: G 2.82, W 2.21, A 2.64, P 2.36, H 2.25, Y 2.23, D 3.09, C 1.96, I 1.77, S 2.79, N 2.78, T 2.55, Q 2.67, R 2.24, M 2.24, L 2.07, F 1.92, K 2.5, V 2.09
S11: T 2.79, G 2.9, D 3.03, Y 2.58, K 2.61, Q 3.33, P 2.36, E 2.55, N 2.96, R 2.71, F 2.57, V 2.32, H 2.56, M 2.8, C 2.34, W 2.4, L 2.51, A 2.57, I 2.52
E6: K 1.8, R 1.99, H 2.44, W 1.96, D 2.7, V 1.76, I 2.06, Q 2.56, T 2.02, F 2.23, G 2.38, L 1.69, S 2.27, P 2.49, N 2.29, C 1.83, Y 2.39, A 2.01, M 2
G13: Q 3.11, A 2.88, L 2.23, R 2.7, E 3.12, P 3.31, M 2.5, C 2.37, H 2.23, W 1.79, F 2.28, D 2.88, V 1.98, T 2.46, I 1.81, S 2.36, K 2.44, Y 2.14, N 2.64
E2: C 2.48, S 2.58, H 2.32, M 2.1, K 2.02, I 1.91, R 2.93, Q 2.52, A 1.98, L 2.11, V 2.35, N 2.9, F 2.38, Y 1.69, G 2.56, W 1.74, P 2.51, D 2.86, T 2.68
E9: P 2.18, R 2.41, Q 2.44, C 2.25, S 2.3, F 2.05, L 2.93, M 2.28, I 2.14, N 2.3, W 2.09, T 2.54, G 2.72, V 2.14, A 2.97, Y 1.96, D 2.77, H 2.35, K 2.5
S7: M 2.47, C 2.56, L 2.33, P 3.02, I 2.47, E 2.77, A 2.88, F 2.33, G 2.75, N 2.98, K 2.55, D 2.87, W 2.46, Q 2.83, Y 2.15, V 3.02, H 3.13, R 2.98, T 3.13
K14: D 3.48, M 2.48, N 3.52, G 2.96, E 3.54, F 2.25, L 3.3, P 3.67, A 2.96, I 2.78, H 3.2, Q 3.19, C 3.5
L8: I 2.47, C 3.3, N 3.34, H 3.26, G 3.21, T 3.42, M 2.86, R 3.09, K 3.42, Q 3.32, V 3.15, F 2.57, Y 2.97, S 3.48, D 3.35, P 3.11, W 1.95, A 3.46, E 3.2
V12: M 2.26, A 3.26, W 2.47, H 3.28, D 3.63, I 2.51, F 2.56, E 3.36, L 2.5, S 3.54, T 3.13, R 2.86, N 2.95, Q 3.34, Y 2.36, K 3.54, G 3.12, P 2.94, C 2.55
T4: C 2.46, W 1.68, P 2.77, N 2.83, K 2.46, A 2.52, L 2.28, E 2.41, I 1.98, S 2.4, H 2.99, Q 2.71, F 2.01, Y 2.29, G 2.66, M 2.23, D 3.38, R 2.3, V 2.3
I3: M 3.29, T 2.9, L 3, E 3.82, C 2.65, P 3.2, H 3.67, Q 3.36, A 3.14, V 3.16, R 2.94, D 3.3, S 2.84, K 3.04, F 2.79, G 3.13, W 2.18, Y 2.1, N 3.25
E5: M 1.89, S 2.5, Y 2.03, R 1.96, V 1.72, D 2.72, F 1.61, A 2.4, C 2.14, W 1.85, P 1.98, I 1.56, L 2.1, N 2.64, G 2.09, T 2.37, Q 2.37, K 2.31, H 2.62
E1: C 2.29, T 2.6, W 2.52, A 3.14, M 2.45, P 2.27, N 2.88, V 2.31, R 2.2, I 2.22, L 2.46, G 2.69, F 1.8, Y 2.3, S 2.58, Q 3.06, D 2.68, K 2.51, H 2.67
